Target: T1, HSC70 (Homo sapiens, UniProt P11142)
T1 construct: made in house
Test: ELISA binding of HSC70 to immobilized CFTR NBD1 and competition by soluble peptides
Settings: immobilized NBD1 incubated at 30 °C, direct comparison with immobilized 1097-L; n = 3, p < 0.01
Procedure: HSC70, DJA1 and DJA2 were purified as His-tagged proteins, as described. HSC70 was also amplified by PCR with an N-terminal FLAG tag, inserted into pPROEXHTa (Invitrogen) and purified as described. HSC70 was stored in 100 mM KOAc, 20 mM HEPES-KOH pH 7.5, 5 mM MgOAC2 (buffer G), DJA1 and DJA2 in 500 mM NaCl, 20 mM HEPES-KOH pH 7.5, 5 mM MgOAC2 (buffer H). Avi-tagged CFTR NBD1 was purified as described.
For NBD1 binding, 100 nM of strep-tagged NBD1 in 100 µl of 150 mM NaCl, 50 mM Na2HPO4 pH 7.5, 1 mM ATP, and 40 µM DTT (buffer N), was bound to streptavidin plates for 1 hour at 4 °C with agitation. Plates were washed with PBST and incubated in buffer N at 30 °C in a water bath for 5 min. Then, plates were blocked in PBST containing 0.5% BSA, followed by the addition of HSC70 binding reactions, and detection as above.

T1 sequence (P11142 whole entry): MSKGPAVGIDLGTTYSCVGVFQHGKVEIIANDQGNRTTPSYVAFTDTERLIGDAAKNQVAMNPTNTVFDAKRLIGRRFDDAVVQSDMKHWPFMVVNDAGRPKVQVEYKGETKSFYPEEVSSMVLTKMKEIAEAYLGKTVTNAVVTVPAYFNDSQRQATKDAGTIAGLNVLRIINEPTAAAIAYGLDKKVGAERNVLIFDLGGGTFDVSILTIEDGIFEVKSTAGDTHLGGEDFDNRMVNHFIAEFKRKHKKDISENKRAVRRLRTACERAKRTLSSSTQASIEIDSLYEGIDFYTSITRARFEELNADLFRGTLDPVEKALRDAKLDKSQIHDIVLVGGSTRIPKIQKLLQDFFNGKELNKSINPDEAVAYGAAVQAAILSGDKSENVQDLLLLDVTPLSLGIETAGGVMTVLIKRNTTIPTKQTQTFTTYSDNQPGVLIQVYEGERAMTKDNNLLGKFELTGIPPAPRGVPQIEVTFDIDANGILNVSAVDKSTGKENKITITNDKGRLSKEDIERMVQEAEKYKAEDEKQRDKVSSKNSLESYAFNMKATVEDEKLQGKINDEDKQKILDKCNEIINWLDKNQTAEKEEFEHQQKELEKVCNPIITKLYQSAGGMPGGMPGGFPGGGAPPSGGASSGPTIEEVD

B1: NBD1: Avi-tagged CFTR NBD1, purified and immobilized on streptavidin plates (protein)
chain: TTEVVMENVTAFWEEGFGELFEKAKQNNNNRKTSNGDDSLFFSNFSLLGTPVLKDINFKIERGQLLAVAGSTGAGKTSLLMVIMGELEPSEGKIKHSGRISFCSQFSWIMPGTIKENIIFGVSYDEYRYRSVIKACQLEEDISKFAEKDNIVLGEGGITLSGGQRARISLARAVYKDADLYLLDSPFGYLDVLTEKEIFESCVCKLMANKTRILVTSKMEHLKKADKILILHEGSSYFYGTFSELQNLQPDFSSKLMGCDSFDQFSAERRNSILTETLHRFSLEGDAPVS
modifications: left off: Avi-tag, end not stated, kept
notes: Avi-tagged CFTR NBD1, purified and immobilized on streptavidin plates
Question: With B1 as the molecule, how does the “HSC70 binding to NBD1 relative to that observed for 1097-L” value read?
Answer: 73 ± 3%
